Earlier results in paper PMC5141497.
Read-outs that look alike come from different tables or passages of the source.

Key:
[1] = target: Did2 MIM1 (Saccharomyces cerevisiae) (UniProt P69771)
[2] = target: Did2 MIM1 (Saccharomyces cerevisiae) (UniProt P69771); remark: listed apart in the source
[3] = target: Vps2 MIM1 (Saccharomyces cerevisiae) (UniProt P36108)
Vps2 MIM1 (Saccharomyces cerevisiae), sequence (P36108 183-232): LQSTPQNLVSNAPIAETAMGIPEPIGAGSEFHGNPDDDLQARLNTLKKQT

Vps4 MIT, sequence (P52917 1-83): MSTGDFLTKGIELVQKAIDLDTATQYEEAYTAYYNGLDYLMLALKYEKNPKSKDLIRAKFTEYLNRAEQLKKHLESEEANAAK
Did2 MIM1 (Saccharomyces cerevisiae), sequence (P69771 176-204): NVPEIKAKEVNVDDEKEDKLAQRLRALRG
Ist1 NTD, sequence (P53843 1-193): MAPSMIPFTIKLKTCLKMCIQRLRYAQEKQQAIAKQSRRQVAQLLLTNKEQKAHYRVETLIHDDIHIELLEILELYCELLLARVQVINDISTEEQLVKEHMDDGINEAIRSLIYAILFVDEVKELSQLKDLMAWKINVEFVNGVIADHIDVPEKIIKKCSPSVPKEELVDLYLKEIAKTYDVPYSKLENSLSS

Kd [1] [µM]	Kd [2] [µM]	Kd [3] [µM]	Substance
1	–	–	Ist1 NTD (from UniProt P53843)
–	39	28	Vps4 MIT (from UniProt P52917)
